PMC4552549

Target: TβRII (TGF-β1 receptor) on PBMC (human (endogenous in PBMC)) (UniProt P37173)
UniProt P37173, sequence (P37173 23-567): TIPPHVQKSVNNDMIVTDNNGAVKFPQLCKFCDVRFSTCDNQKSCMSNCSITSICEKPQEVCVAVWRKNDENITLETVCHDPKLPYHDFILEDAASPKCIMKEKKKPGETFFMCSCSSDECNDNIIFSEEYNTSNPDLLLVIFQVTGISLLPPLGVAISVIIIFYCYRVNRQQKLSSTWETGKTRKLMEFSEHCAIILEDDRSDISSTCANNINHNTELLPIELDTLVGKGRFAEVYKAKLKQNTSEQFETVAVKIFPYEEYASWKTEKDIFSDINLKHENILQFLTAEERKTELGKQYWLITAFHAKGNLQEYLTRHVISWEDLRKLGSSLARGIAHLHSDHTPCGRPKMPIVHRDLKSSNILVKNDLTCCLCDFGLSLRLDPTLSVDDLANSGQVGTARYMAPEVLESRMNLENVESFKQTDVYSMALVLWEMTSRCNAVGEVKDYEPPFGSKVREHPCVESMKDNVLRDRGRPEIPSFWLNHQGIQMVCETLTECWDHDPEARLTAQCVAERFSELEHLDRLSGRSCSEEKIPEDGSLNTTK

B1: pm26TGF-β1 synthetic peptide (peptide)
peptide: ACESPLKRQCGGGS
- percentage of Tregs (CD4+CD25+Foxp3+, flow cytometry) in PBMC after the peptide at 1 μM, 10 μM and 100 μM (5.43%, 6.67% and 5.90%; untreated 4.94%): 6.67%
